{"source": "paper PMC4092090", "about": "“Investigation of a MMP-2 Activity-Dependent Anchoring Probe for Nuclear Imaging of Cancer” (PLoS ONE, 2014)", "key": {"[1]": {"test_system": "HT1080 tumor bearing mice", "parameters": "species or system mouse (Balb/c nu-nu)", "details": "mouse, in vivo, iv; for Radioactivity biodistribution, Blood / Radioactivity biodistribution, Heart / Radioactivity biodistribution, Intestine / Radioactivity biodistribution, Kidneys / Radioactivity biodistribution, Liver / Radioactivity biodistribution, Lung / Radioactivity biodistribution, Muscle / Radioactivity biodistribution, Pancreas / Radioactivity biodistribution, Spleen / Radioactivity biodistribution, Stomach / Radioactivity biodistribution, Tumor / T/B (tumor to blood ratio): 37 kBq", "experimental": "Female Balb/c nu-nu mice (5 weeks old, Japan SLC, Inc., Shizuoka, Japan) were housed under a 12-h light/12-h dark cycle and given free access to food and water. HT1080 cells (5×10^6 cells/100 μl PBS (-)/mouse) were subcutaneously inoculated into the right hind leg of Balb/c nu-nu mice. Animals were used for experiments two weeks after inoculation when the mean tumor size was 5.7±2.2 mm along the major axis. […]3000 and […] (37 kBq, 100 μl in PBS including 3% bovine serum albumin and 0.1% Tween 80) were injected intravenously into the tail vein of tumor bearing mice. The mice were sacrificed at various post-injection time points (n = 3 for each time point), and the organs of interest including the tumor tissues were collected for determination of the weights. The radioactivity of each sample was measured with a NaI well-type scintillation counter. From fitting to the two phase decay curves for blood radioactivity data analyzed by GraphPad Prism 6 (GraphPad Software, San Diego, CA), whole body pharmacokinetic parameters such as blood half-lives, distribution volume, mean residence time and total clearance were calculated for each of the probes and the values compared. Simple pharmacokinetic analysis using a single tissue compartment model was applied to the biodistribution data to calculate rate constants (K1 and k2) for radioactivity transfer from blood to tumor and clearance from tumor to blood by PMOD version 3.2. In addition, MDAP3000 (7.4 MBq in 200 μl) was injected intravenously into the tail vein of tumor bearing mice for metabolite analysis in tumors excised 3, 6, and 24 hr post injection (n = 2 each). Tumor homogenates were prepared on ice and insoluble material was removed by centrifugation after methanol treatment. The resulting supernatant was analyzed by RP-HPLC."}, "[2]": {"molecular_target": "T1, Human-recombinant MMP-2 protein (Homo sapiens, UniProt P08253)", "T1 construct": "purchased R & D Systems, Inc. 902-MP-010", "T1 sequence (P08253 110-660)": "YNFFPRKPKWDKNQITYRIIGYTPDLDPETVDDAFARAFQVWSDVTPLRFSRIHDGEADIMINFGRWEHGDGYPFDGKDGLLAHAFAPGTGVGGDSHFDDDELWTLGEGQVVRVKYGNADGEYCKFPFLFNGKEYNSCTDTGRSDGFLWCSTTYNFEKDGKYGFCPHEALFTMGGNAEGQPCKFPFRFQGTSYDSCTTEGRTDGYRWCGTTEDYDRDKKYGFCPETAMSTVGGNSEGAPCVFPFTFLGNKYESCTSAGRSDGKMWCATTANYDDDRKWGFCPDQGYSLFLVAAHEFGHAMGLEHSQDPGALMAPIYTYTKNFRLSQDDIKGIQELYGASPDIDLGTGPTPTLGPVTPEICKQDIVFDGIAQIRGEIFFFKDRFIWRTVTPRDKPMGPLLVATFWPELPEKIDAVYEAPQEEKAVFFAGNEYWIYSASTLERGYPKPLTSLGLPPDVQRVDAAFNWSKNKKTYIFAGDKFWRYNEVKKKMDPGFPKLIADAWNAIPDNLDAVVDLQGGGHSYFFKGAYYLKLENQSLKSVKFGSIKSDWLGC", "test": "Cleavage assay", "type": "biochemical", "details": "activated MMP-2 1–5 nM, 370 kBq probe, 37°C, 2 hr, pH 7.5 assay buffer, RP-HPLC, Fig. 3b", "experimental": "Human-recombinant MMP-2 protein (902-MP-010, R & D Systems, Inc., Minneapolis, MN USA) was activated with p-aminophenylmercuric acetate (1 mM) in assay buffer (50 mM Tris-HCl, 150 mM NaCl, 10 mM CaCl2, 5 µM ZnCl2, 0.02% Brij 35, pH 7.5). MDAP1000, MDAP3000, and MDAP5000 (370 kBq) were incubated at 37°C for 2 hr with activated MMP-2 (1–5 nM) and a MMP inhibitor (0 or 100 µM, GM6001, Merck KGaA, Darmstadt, Germany). The reaction was quenched by addition of methanol, and the percentage of cleaved peptide was estimated by RP-HPLC."}, "[3]": {"test": "Effective dose estimation (OLINDA)", "details": "estimated from mouse biodistribution data (non-decay-corrected time radioactivity curves) with OLINDA", "text": "The effective dose of MDAP3000 was estimated using the area under the non-decay-corrected time radioactivity curves generated from the biodistribution data for each organ with the standard quantitation platform included in Organ Level Internal Dose Assessment software (OLINDA, Vanderbilt University)."}}, "note": "Like-named read-outs stand apart in the source and are kept apart here."}
{"substance": "Palmitoyl-Dap(p-SCN-Bn-DTPA-^111In)-10-Adc-Gly-Pro-Leu-Gly-Val-Arg-Gly-Lys(ivDde)-PEG3000 [MDAP3000]", "values": [{"measurement": "Blood clearance (in words)", "setting": "[1]", "value": "rapid blood clearance"}, {"measurement": "Tumor accumulation (in words)", "setting": "[1]", "value": "high tumor accumulation"}, {"measurement": "Radioactivity biodistribution, Blood", "setting": "[1]; 0.25 h", "value": "44.98±2.53", "unit": "% injected dose per gram"}, {"measurement": "Radioactivity biodistribution, Heart", "setting": "[1]; 0.25 h", "value": "9.26±0.86", "unit": "% injected dose per gram"}, {"measurement": "Radioactivity biodistribution, Intestine", "setting": "[1]; 0.25 h", "value": "3.59±0.24", "unit": "% injected dose per gram"}, {"measurement": "Radioactivity biodistribution, Kidneys", "setting": "[1]; 0.25 h", "value": "11.85±0.84", "unit": "% injected dose per gram"}, {"measurement": "Radioactivity biodistribution, Liver", "setting": "[1]; 0.25 h", "value": "18.83±1.38", "unit": "% injected dose per gram"}, {"measurement": "Radioactivity biodistribution, Lung", "setting": "[1]; 0.25 h", "value": "20.44±4.77", "unit": "% injected dose per gram"}, {"measurement": "Radioactivity biodistribution, Muscle", "setting": "[1]; 0.25 h", "value": "1.72±0.76", "unit": "% injected dose per gram"}, {"measurement": "Radioactivity biodistribution, Pancreas", "setting": "[1]; 0.25 h", "value": "3.91±0.33", "unit": "% injected dose per gram"}, {"measurement": "Radioactivity biodistribution, Spleen", "setting": "[1]; 0.25 h", "value": "6.53±0.34", "unit": "% injected dose per gram"}, {"measurement": "Radioactivity biodistribution, Stomach", "setting": "[1]; 0.25 h", "value": "0.48±0.04", "unit": "% injected dose per organ"}, {"measurement": "Radioactivity biodistribution, Tumor", "setting": "[1]; 0.25 h", "value": "3.60±0.17", "unit": "% injected dose per gram"}, {"measurement": "T/B (tumor to blood ratio)", "setting": "[1]; 0.25 h", "value": "0.08±0.01"}, {"measurement": "Radioactivity biodistribution, Blood", "setting": "[1]; 1 h", "value": "30.48±1.67", "unit": "% injected dose per gram"}, {"measurement": "Radioactivity biodistribution, Heart", "setting": "[1]; 1 h", "value": "8.20±0.74", "unit": "% injected dose per gram"}, {"measurement": "Radioactivity biodistribution, Intestine", "setting": "[1]; 1 h", "value": "5.85±0.11", "unit": "% injected dose per gram"}, {"measurement": "Radioactivity biodistribution, Kidneys", "setting": "[1]; 1 h", "value": "10.60±0.38", "unit": "% injected dose per gram"}, {"measurement": "Radioactivity biodistribution, Liver", "setting": "[1]; 1 h", "value": "18.45±0.81", "unit": "% injected dose per gram"}, {"measurement": "Radioactivity biodistribution, Lung", "setting": "[1]; 1 h", "value": "15.92±0.58", "unit": "% injected dose per gram"}, {"measurement": "Radioactivity biodistribution, Muscle", "setting": "[1]; 1 h", "value": "1.27±0.20", "unit": "% injected dose per gram"}, {"measurement": "Radioactivity biodistribution, Pancreas", "setting": "[1]; 1 h", "value": "4.35±0.74", "unit": "% injected dose per gram"}, {"measurement": "Radioactivity biodistribution, Spleen", "setting": "[1]; 1 h", "value": "5.65±0.98", "unit": "% injected dose per gram"}, {"measurement": "Radioactivity biodistribution, Stomach", "setting": "[1]; 1 h", "value": "0.69±0.21", "unit": "% injected dose per organ"}, {"measurement": "Radioactivity biodistribution, Tumor", "setting": "[1]; 1 h", "value": "5.49±0.53", "unit": "% injected dose per gram"}, {"measurement": "T/B (tumor to blood ratio)", "setting": "[1]; 1 h", "value": "0.18±0.03"}, {"measurement": "Radioactivity biodistribution, Blood", "setting": "[1]; 3 h", "value": "15.33±0.81", "unit": "% injected dose per gram"}, {"measurement": "Radioactivity biodistribution, Heart", "setting": "[1]; 3 h", "value": "6.70±0.59", "unit": "% injected dose per gram"}, {"measurement": "Radioactivity biodistribution, Intestine", "setting": "[1]; 3 h", "value": "13.13±1.73", "unit": "% injected dose per gram"}, {"measurement": "Radioactivity biodistribution, Kidneys", "setting": "[1]; 3 h", "value": "11.89±0.76", "unit": "% injected dose per gram"}, {"measurement": "Radioactivity biodistribution, Liver", "setting": "[1]; 3 h", "value": "22.83±3.72", "unit": "% injected dose per gram"}, {"measurement": "Radioactivity biodistribution, Lung", "setting": "[1]; 3 h", "value": "9.72±1.02", "unit": "% injected dose per gram"}, {"measurement": "Radioactivity biodistribution, Muscle", "setting": "[1]; 3 h", "value": "1.49±0.15", "unit": "% injected dose per gram"}, {"measurement": "Radioactivity biodistribution, Pancreas", "setting": "[1]; 3 h", "value": "5.25±0.57", "unit": "% injected dose per gram"}, {"measurement": "Radioactivity biodistribution, Spleen", "setting": "[1]; 3 h", "value": "5.41±0.64", "unit": "% injected dose per gram"}, {"measurement": "Radioactivity biodistribution, Stomach", "setting": "[1]; 3 h", "value": "1.17±0.82", "unit": "% injected dose per organ"}, {"measurement": "Radioactivity biodistribution, Tumor", "setting": "[1]; 3 h", "value": "5.49±0.36", "unit": "% injected dose per gram"}, {"measurement": "T/B (tumor to blood ratio)", "setting": "[1]; 3 h", "value": "0.36±0.04"}, {"measurement": "Radioactivity biodistribution, Blood", "setting": "[1]; 6 h", "value": "8.33±0.58", "unit": "% injected dose per gram"}, {"measurement": "Radioactivity biodistribution, Heart", "setting": "[1]; 6 h", "value": "5.64±0.79", "unit": "% injected dose per gram"}, {"measurement": "Radioactivity biodistribution, Intestine", "setting": "[1]; 6 h", "value": "14.08±2.39", "unit": "% injected dose per gram"}, {"measurement": "Radioactivity biodistribution, Kidneys", "setting": "[1]; 6 h", "value": "11.40±1.18", "unit": "% injected dose per gram"}, {"measurement": "Radioactivity biodistribution, Liver", "setting": "[1]; 6 h", "value": "17.61±2.53", "unit": "% injected dose per gram"}, {"measurement": "Radioactivity biodistribution, Lung", "setting": "[1]; 6 h", "value": "5.56±0.75", "unit": "% injected dose per gram"}, {"measurement": "Radioactivity biodistribution, Muscle", "setting": "[1]; 6 h", "value": "1.43±0.28", "unit": "% injected dose per gram"}, {"measurement": "Radioactivity biodistribution, Pancreas", "setting": "[1]; 6 h", "value": "4.97±1.31", "unit": "% injected dose per gram"}, {"measurement": "Radioactivity biodistribution, Spleen", "setting": "[1]; 6 h", "value": "4.94±1.51", "unit": "% injected dose per gram"}, {"measurement": "Radioactivity biodistribution, Stomach", "setting": "[1]; 6 h", "value": "0.97±0.46", "unit": "% injected dose per organ"}, {"measurement": "Radioactivity biodistribution, Tumor", "setting": "[1]; 6 h", "value": "7.31±1.12", "unit": "% injected dose per gram"}, {"measurement": "T/B (tumor to blood ratio)", "setting": "[1]; 6 h", "value": "0.88±0.14"}, {"measurement": "Radioactivity biodistribution, Blood", "setting": "[1]; 24 h", "value": "1.61±0.27", "unit": "% injected dose per gram"}, {"measurement": "Radioactivity biodistribution, Heart", "setting": "[1]; 24 h", "value": "3.78±0.39", "unit": "% injected dose per gram"}, {"measurement": "Radioactivity biodistribution, Intestine", "setting": "[1]; 24 h", "value": "3.70±1.06", "unit": "% injected dose per gram"}, {"measurement": "Radioactivity biodistribution, Kidneys", "setting": "[1]; 24 h", "value": "10.81±2.35", "unit": "% injected dose per gram"}, {"measurement": "Radioactivity biodistribution, Liver", "setting": "[1]; 24 h", "value": "10.51±0.89", "unit": "% injected dose per gram"}, {"measurement": "Radioactivity biodistribution, Lung", "setting": "[1]; 24 h", "value": "2.50±0.44", "unit": "% injected dose per gram"}, {"measurement": "Radioactivity biodistribution, Muscle", "setting": "[1]; 24 h", "value": "1.02±0.16", "unit": "% injected dose per gram"}, {"measurement": "Radioactivity biodistribution, Pancreas", "setting": "[1]; 24 h", "value": "3.92±0.68", "unit": "% injected dose per gram"}, {"measurement": "Radioactivity biodistribution, Spleen", "setting": "[1]; 24 h", "value": "3.92±0.24", "unit": "% injected dose per gram"}, {"measurement": "Radioactivity biodistribution, Stomach", "setting": "[1]; 24 h", "value": "0.54±0.07", "unit": "% injected dose per organ"}, {"measurement": "Radioactivity biodistribution, Tumor", "setting": "[1]; 24 h", "value": "4.25±0.79", "unit": "% injected dose per gram"}, {"measurement": "T/B (tumor to blood ratio)", "setting": "[1]; 24 h", "value": "2.74±0.89"}, {"measurement": "Cleavage by MMP-2", "setting": "[2]", "value": "concentration-dependent manner"}, {"measurement": "Effective dose", "setting": "[3]", "value": "5.08×10^−2 mSv/MBq"}]}
